The data set concerns the target nucleolin on surface of HCT116 p53-/- cells (Homo sapiens) (UniProt P19338). Description: flow. The note with it: 2'-F pyrimidines, unit inferred.

Sequence of nucleolin on surface of HCT116 p53-/- cells (Homo sapiens) (P19338 2-710): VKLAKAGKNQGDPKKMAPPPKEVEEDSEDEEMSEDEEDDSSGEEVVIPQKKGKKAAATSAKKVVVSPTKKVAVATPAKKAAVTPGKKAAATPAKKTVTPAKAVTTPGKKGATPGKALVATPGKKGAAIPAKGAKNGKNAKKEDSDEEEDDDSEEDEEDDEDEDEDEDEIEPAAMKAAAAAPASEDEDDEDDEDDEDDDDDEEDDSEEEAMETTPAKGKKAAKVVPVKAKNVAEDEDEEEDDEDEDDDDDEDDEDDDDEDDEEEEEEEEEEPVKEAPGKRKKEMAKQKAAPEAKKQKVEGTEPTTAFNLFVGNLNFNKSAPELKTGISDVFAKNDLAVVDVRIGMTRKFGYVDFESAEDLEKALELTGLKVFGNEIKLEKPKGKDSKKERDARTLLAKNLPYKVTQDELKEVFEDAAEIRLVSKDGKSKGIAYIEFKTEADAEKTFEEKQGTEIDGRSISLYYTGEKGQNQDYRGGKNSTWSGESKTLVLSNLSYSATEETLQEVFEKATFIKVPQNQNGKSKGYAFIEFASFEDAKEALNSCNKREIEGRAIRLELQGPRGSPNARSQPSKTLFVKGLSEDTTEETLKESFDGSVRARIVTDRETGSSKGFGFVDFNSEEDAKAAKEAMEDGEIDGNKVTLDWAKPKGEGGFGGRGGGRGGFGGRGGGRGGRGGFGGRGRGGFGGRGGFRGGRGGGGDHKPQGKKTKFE

One may read the Kd as a measure of binding affinity in units of concentration. Low values mean a tighter complex, high ones a looser complex. Sequence “GGAAGAGGGAUGGGCACGGUCCAGCGCUAACUGUACCUGCUGUGCCACCCACC [Ev5]” had a Kd (DL650-labeled Ev5, HCT116 p53-/- cells, Bmax 2.064) of 50.7 nM. For the setting “DL650-labeled Ev3, HCT116 p53-/- cells, Bmax 3.214”, “GGGAGAGAGGAAGAGGGAUGGGCACGGUCCAGCGCUAACUGUACCUGCUGUGCCACCCACCG [Ev3]” showed a Kd of 119 nM. That is a sub-micromolar value.

For the origin of these results see patent US20200283773.
